Assays:
[1] = biological target: C5b6 complex generated on convertase-labelled E. coli from C5 and C6 (human) (UniProt P01031)
[2] = biological target: C5b6 complex generated on convertase-labelled E. coli from C5 and C6 (human) (UniProt P01031); remark: listed apart in the source
[3] = biological target: C5b6 complex generated on convertase-labelled E. coli from C5 and C6 (human) (UniProt P01031); remark: listed apart in the source

Sequence of UniProt P01031 (P01031 19-673, chain 1 of 3): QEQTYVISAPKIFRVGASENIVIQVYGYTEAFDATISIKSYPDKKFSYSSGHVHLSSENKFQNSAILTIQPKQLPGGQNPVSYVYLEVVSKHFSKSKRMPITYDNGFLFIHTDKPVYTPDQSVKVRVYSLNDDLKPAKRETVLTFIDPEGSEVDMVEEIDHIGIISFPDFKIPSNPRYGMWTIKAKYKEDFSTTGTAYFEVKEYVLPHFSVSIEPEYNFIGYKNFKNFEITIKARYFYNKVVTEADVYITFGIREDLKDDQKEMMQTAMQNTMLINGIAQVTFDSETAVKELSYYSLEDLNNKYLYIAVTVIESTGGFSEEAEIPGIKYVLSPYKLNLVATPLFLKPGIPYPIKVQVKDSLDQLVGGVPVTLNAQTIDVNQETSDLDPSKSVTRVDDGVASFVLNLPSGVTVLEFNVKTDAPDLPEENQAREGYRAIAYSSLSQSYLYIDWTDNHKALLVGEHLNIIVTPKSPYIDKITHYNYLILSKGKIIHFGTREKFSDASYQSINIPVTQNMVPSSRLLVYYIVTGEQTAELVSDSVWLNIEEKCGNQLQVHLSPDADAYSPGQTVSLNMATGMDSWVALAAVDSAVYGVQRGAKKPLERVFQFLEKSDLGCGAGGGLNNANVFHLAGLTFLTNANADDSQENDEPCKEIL
Sequence of UniProt P01031 (P01031 752-1676, chain 2 of 3): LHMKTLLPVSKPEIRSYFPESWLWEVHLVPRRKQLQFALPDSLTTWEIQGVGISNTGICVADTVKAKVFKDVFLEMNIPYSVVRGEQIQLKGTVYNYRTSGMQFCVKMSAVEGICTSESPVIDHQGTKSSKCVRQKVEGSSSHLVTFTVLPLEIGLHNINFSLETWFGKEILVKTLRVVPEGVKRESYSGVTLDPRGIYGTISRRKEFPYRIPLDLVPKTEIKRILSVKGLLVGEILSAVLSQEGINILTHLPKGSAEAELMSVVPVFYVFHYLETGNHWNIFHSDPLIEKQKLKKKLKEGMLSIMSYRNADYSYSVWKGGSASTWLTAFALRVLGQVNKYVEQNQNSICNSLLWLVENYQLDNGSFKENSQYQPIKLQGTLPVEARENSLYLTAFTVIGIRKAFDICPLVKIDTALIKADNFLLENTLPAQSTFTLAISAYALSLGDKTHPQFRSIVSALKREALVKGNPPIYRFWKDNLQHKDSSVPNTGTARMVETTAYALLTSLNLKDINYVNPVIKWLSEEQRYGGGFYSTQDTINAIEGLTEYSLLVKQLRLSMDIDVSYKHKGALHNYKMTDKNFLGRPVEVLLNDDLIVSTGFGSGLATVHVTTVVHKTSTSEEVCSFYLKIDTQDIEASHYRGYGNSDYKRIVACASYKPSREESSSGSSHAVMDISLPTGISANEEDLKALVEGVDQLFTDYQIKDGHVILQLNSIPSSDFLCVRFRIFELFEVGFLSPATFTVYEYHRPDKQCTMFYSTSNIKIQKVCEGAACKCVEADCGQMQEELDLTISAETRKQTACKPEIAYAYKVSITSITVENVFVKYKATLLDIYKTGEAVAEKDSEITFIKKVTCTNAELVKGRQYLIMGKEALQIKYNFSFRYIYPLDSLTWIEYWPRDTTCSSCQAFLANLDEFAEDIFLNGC
Sequence of UniProt P01031 (P13671 22-934, chain 3 of 3, further chain): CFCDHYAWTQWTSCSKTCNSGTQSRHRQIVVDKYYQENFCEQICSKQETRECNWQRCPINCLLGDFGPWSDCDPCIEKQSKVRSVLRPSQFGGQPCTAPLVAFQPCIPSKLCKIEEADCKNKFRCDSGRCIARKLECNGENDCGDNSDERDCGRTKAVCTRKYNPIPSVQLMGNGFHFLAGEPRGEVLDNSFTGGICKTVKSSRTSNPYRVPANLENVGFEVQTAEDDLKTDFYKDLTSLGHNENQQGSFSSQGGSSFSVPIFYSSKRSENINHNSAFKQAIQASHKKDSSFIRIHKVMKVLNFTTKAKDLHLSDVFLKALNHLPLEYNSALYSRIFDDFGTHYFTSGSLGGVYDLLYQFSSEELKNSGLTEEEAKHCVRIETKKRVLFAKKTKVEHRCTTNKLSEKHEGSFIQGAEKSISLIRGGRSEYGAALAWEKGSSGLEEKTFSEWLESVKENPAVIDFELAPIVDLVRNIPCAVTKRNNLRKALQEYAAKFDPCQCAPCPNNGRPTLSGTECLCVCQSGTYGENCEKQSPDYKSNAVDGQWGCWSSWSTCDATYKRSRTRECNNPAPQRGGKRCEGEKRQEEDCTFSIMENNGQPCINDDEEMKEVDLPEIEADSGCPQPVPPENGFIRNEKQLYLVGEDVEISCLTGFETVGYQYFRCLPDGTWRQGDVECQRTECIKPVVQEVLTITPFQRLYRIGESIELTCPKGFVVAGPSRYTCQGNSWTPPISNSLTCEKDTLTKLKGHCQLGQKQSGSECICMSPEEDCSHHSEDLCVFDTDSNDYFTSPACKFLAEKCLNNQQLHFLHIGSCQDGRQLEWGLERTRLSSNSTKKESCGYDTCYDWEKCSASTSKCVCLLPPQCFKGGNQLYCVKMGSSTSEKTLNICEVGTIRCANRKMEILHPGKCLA

deposition of C9-Cy5 (geoMFI) on E. coli MG1655, C5b6 generated in the absence of C7 against in the presence of C7 [1]: 50 fold | fluorescence ratio C9:C6 on E. coli MG1655, C5b6 generated in the presence of C7 against in the absence of C7 [1]: 10 fold | deposition of C6-Cy5 (geoMFI) on convertase-labelled E. coli MG1655 after 60 minutes, C5b6 generated in the presence of C7 against in its absence [3]: 10 fold
Substance: His-tagged complement component C7 (from UniProt P10643 23-843) (natural protein)
percentage of Sytox positive (inner membrane damaged) E. coli MG1655 after addition of C8 and C9; C7 present from t = 0 (~100%) or added 60 minutes after C5b6 generation was initiated (~6%) [2]: 100%

— article PMC7351214
